Here are results for 16 sequences from the DeepSol protein solubility set.

A short description of this series: soluble on expression in E. coli; label from the status in PepcDB or PDB records.
With “MPTITTKTPVKGLIFNIQKFSINDGPGIRTVVFFKGCPLRCKWCSNPESQSGEQESMYDEQTAKQTIVGDYMTVDDIMKVILQDKDFYEESGGGVTFSGGEVLFQASFAIELAKAVKAAGINLACETTGYARPKVFNEFMSYMDFMYYDCKQWDPAQHRIGTGADNGVILRNLATAVQAHQKMMVRIPVIPGFNYTLNDADHFGQLFNQIGVTEVELLPFHQFGLKKYQDLGRKYALVNVKQLQADDLIDYAEHIRAHGVKVRVNGW”, the “soluble on expression in E. coli” value was “not soluble”.

For “MSKGMFSASQSGFSTIEVYDLGPLNKIDLSIAKAGLEDTGGTVTFSVEQSLLDSLNNADGTSYQLLPPECYTIENATYSVSPGGDRRVTGGSLVYDPHKIYNLCGFDELKYVLPLRVSSTGTPMNSDRTATLYGFIVKEAIVRLASTGGDFVVEGGTTTSPMNLDTEISFENEWDLTTSFATKGADYVDNYNSANSTYYIPLPSDFYTLPDVTIAKGKTTGGSAISLLGETLPPGNYLLPVSLGGLSGQGDASINIDKETVANYFVIKQGGPINRDHWTVTANTEEKTGEVSAAYPHNGQTISLIDGEINTFWHSKWQGGEVAPPYEIILDMGKENSVSQLGLIARQNALTSMNLEIYAGDDGETWNLIGKYFFDGSIKTEQMVPVKACDARWIRIYIPTLGSGSSVGHLAEIYVYGTDKLEHHHHHH”, the “soluble on expression in E. coli” value was “soluble”.

For “SMVRLKKSFGQHLLVSEGVLKKIAEELNIEEGNTVVEVGGGTGNLTKVLLQHPLKKLYVIELDREMVENLKSIGDERLEVINEDASKFPFCSLGKELKVVGNLPYNVASLIIENTVYNKDCVPLAVFMVQKEVAEKLQGKKDTGWLSVFVRTFYDVNYVMTVPPRFFVPPPKVQSAVIKLVKNEKFPVKDLKNYKKFLTKIFQNRRKVLRKKIPEELLKEAGINPDARVEQLSLEDFFKLYRLIEDSGE”, the “soluble on expression in E. coli” value is on record as “soluble”.

In the case of “MQVKSIKMRWESGGVNYCYLLSDSKNKKSWLIDPAEPPEVLPELTEDEKISVEAIVNTHHHYDHADGNADILKYLKEKNPTSKVEVIGGSKDCPKVTIIPENLKKLHLGDLEITCIRTPCHTRDSICYYVKDPTTDERCIFTGDTLFTAGCGRFFEGTGEEMDIALNNSILETVGRQNWSKTRVYPGHEYTSDNVKFVRKIYPQVGENKALDELEQFCSKHEVTAGRFTLKDEVEFNPFMRLEDPKVQKAAGDTNNSWDRAQIMDKLRAMKNRM”, the “soluble on expression in E. coli” value is “soluble”.

Regarding “MKKIVFLLLLCVACCMNAQEFHLIPKVGLNLANTTGEVDSKVRPGLNIGLGGDVMLTERFGIETGVYYSMQGSKYKGGGVSYTDKLDYINVPVYAKEFIYKGLYVFGGPQFSFNVNSENKSSSDYGTTVIGMNVIRKFDCGVGLGAGYQFERGLLISLNYNIGLINVNKSWASDSNPKANNSVVQLNVGWRFAL”, the “soluble on expression in E. coli” value is given as “not soluble”.

As for “MGSDKIHHHHHHMKIGILTFANVPNFGANLQALSTISYLQNHGYNPILIKWEPEDFEARFTSIKTQKQPQEHFHFVEKYLPQTKICRNDDDICQVIKDEKIEGIIIGSDAVLQCSSFWGRLDFPTKTVVRVNKTTSEREYPNAFWGTFYDKLGSKIPMVIMSASSQNAKYRLIARSVKHKMSNNLSHFEYISVRDIWTRDMITYITKGAIIPNITPDPVFAFNYNCAKFIPSKEDILLKYHLPENYVLVSMKCRMLDNMLWMDKLKSEMKKLYLECVALPMPTGIEFKHNFDFSITTPLPPLDWYALIKYAKGYIGENMHPIVVALHNAVPCFCFDTYGVLKYARCVCVEESSKIYDIMSRFSLLDNRINAYSRFWKCPPVDIVINRILHFDVIACQKTALNYYNNYEQMMSSILEVFKSK”, the “soluble on expression in E. coli” value is given as “not soluble”.

“MALVRPFPIVQVVGFQNSGKTTFIERILEKASEQGVHLGCLKHHGHGGEPQTLTEGKDTDRYKAAGADVTAVEGAGVLQLTARRNWDLARLIELYQFLETDCLLIEGFKKAPYPKVVILSEKEDLEALQAVNIIAIIYRKKEHMTEHQGLPVFHADDPVAVDFVLSQLKGESA”: the “soluble on expression in E. coli” value was “soluble”.

Take “MGSDKIHHHHHHMKALIEVHNLWKEYNGKEKVTALKGINLRINTGEFVVILGPSGSGKTTLLNCLSGVDRPTRGTVIIHGTDLYTLSEEERTRFRAENMGFVFQFFNLVPVLTAIENVELPLLILGVNRKEARERAFEILRKVGLAHKCDRFPEELSGGEKQRVAIARAIVHNPKVIWADEPTGALDNETGRMIIDLLMEMKENSTLVVVTHDERIAEKADRVIRIRDGQIEQDICEKAL”: the “soluble on expression in E. coli” value is recorded as “not soluble”.

In the case of “MSIQRFTPEFKAEAVRQVIERGYSVAEIAAGFGVSTHSLYKWVKAVTPDKSEKQASELLEAKSEILRLRAQMRRLEEERDILKKPSGSSHTAWRPLEHHHHHH”, the “soluble on expression in E. coli” value is “not soluble”.

As to “MSLSEDLFDVEVRNFEEGDKVTGTVTSVEDKQVYVGIPGSKLDGVVPISELSNIHVETASDVVSVGDTLDLIVTKVEDDILVLSKRKVDAEKASDDIKAKFESGEVFEAVVSDVVKGGLVVDLGVRAFVPASLVEDHFVEDFADYKGTTLTFKVVEFEPENNRVILSHRAVVETEKASQKQALLSEIKEGDVIEGTVQRLANFGAFVDIGGVDGLVHISQISYKHIATPQEALEEGQKVTVKVIGIDPENERISLSIKATLPGPWDGIAEKAPVGSVLEGKVVRLVTFGAFVEIFPGVEGLVHISQISHEHIGTPQEVLSEGQTVEVKVLEVNEADKRLSLSIKELKDAPVEEADYELPEENTGFQMSDLIGDKLKGLQNDDKEGHHHHHH”, the “soluble on expression in E. coli” value is recorded as “soluble”.

Turning to “EHMQHLAMKGARFDIVLLPSSPTAHGLEQVQFQVAANKGNPPRPLNKVASGGELARISLALQVVASQYTQVPTLIFDEVDTGIGGGVAEMVGKALRALGRKHQVLAVTHLPQVASCGENHWRVRKHSEGEQTVSEISILDEIQRIEEVARMLGGEVITDTTRQHAAELLQLASKNSLF”, the “soluble on expression in E. coli” value is given as “not soluble”.

Turning to “MLKKLSPIFSNITGVVRYQDLAYVASVSDEIQEQNIAHSYVTEWDCGTWCVAGEDDDMLPWEIVSATVVHEPVEQALFLGARGQVFCMGSGDIHEEQLPDGDDAIGGRGNMRGVACIDGVAYACGMDRQVYRRFDENDWRAIDTGARPPAGSEAVVGFEAIGGFGAREIYAVGWDGEIWQYDGKRWQPRESPTNLILTAICCAEDGSVYACGQAGTLLRGRNDHWEIIAQDDVDEDLWSLAWFDGALYVSSATAVYTLVGGHLKEVDFGDEQPQRCFHLSAADGVLWSIAAKDIFSFDGQQWTRID”, the “soluble on expression in E. coli” value is “not soluble”.

For “MNIDTKYHGTVAVNEQDIVHFPHGLPGFADEKRFVLLPLADTPFVILQSVETPALGFVLIEPFSYFPTYEFELDEATVEQLDIESERDVAVYVILTVADPFHETTANLQAPVVINARKRFGKQVILANTPYKTKHRLFPEKVAT”, the “soluble on expression in E. coli” value is reported as “not soluble”.

Turning to “MSLNLSKTLKHVYQEAKVSDLFPITHLNSPCIFESQSGLVGSVIKVNGAAFEIEEAETLNHQRFLLHQALVSLDSRFIIYVTTHRQKISCPLIGEFKPGFAKDLDERYQQRFKDKNLYKNTLYITVVLKGDDTSKTGSWLKWAKSLSIKGNSELSEHHREQSIQTLNRVVEQLQANLNPFEATILGKQDEVLGFSELLQFLGLVVNAGQTTSFKHPVCSPPIANSIPQTFKQEVKYPEGHLGQYLSSCQLLFGECIQFQGNTQKDCVFGAMLSLKKYPTNTASILLDSMLSLDCEFIATHTFAPIGRDSALDTISKKRSKLLSAEDKALSQTTALSDLEDGIASETLLLGAHHHTVMLLAPNKSLLDAAILEATKRYGSAGIVVVKETLGLEPAFWSQLPCNQHFITRASLITSQNFVDFCPLHNTQTGFSNENFLGGAVTLLETPSKTPVYFNYHARGSKTEGHHHHHH”, the “soluble on expression in E. coli” value was “soluble”.

Regarding “MGSDKIHHHHHHMIRGLYIAVSAMITNQQKQNVVVNNLANMDTNGYKSKQLLTKSFDELKLEGYNNYANGTKQKQIIGDISPGISMDETITNFNQGPIKTTDNKMDVAIQGKGFFLVSDAAGNQFYTRNGNFRTDNQGDLITSEGYYVLGTNTATGAVGHINVGNQKFEVAKDNTISLDGNAMYKFNIVDFNNYNNLKKEGDNLYSGGGAMKVNNALTIQSAIESSNVDMVSEINNMMTISREYEANQKIIQAMDSKLAKIASEIGSVR”, the “soluble on expression in E. coli” value is “not soluble”.

In the case of “MGDQLDAVEVQAISPDGEITVKLGTGDAVDVQFKSDEYFKSVPHETLSHQLGRALTLLAVGRIRKRHQILEAEGFEVYGEDDAHWDKRVRVFREKRAQVKAAGRSPKRHIAIATVGLRDFKVRFERDVTRRLSRSEFSGEFGGAVAAVISEYSAQMTQLKTAMFT”, the “soluble on expression in E. coli” value is “not soluble”.
